Test: soluble on expression in E. coli; label from the status in PepcDB or PDB records

Row | Sequence | soluble on expression in E. coli
1 | MQSTVAFISHRSTHKDFVRKIVDTVKRDNCIVDEFDFYPATKTVNEIVRNLNFAPIFVLLISKDALESDWIKLEMSKARQLYDTGVIREFMPFIIEEGVKLEELPSWMTRDWSLNIKTITSPKIIGQFIIETQRKIRCVGNNAYGNWINTFIGRSNELDEFQRAMYDSVYMPHRSLIVSGKPGSGRTRFIQKCIQDSSGLSFIPEGFQIKLPQKTYLDNFILQLHEGLGFSKASYEDILKLDHEHQITKCVSYINQIINAHSFLLIEDEMSFVSYDGTISEWGKEIISHPAMIDSLKIFISSRVKPRYSELRAYPQIIHINLSGFTKDERKRLFVNCCRYYNVQLNDSDVDFFVDRLQSSPQQLEQAVREIKDKNVRFAKKDIKNLIAIGDEVFSRVISWFKGDETALTLAKVLAEVDMISFDLLEQLYEEDYPKIEQLVNNFESLSILDFYGPGGNNISLDGGVSDYIRRSKLDLDPIMKTRIEEIIFNKIDTAEDDLGELSIFLHDLRKQLLSGKGFAYVMPSIVISTVIDLYNQGSYDSVKDICLHALEHCSSYTEEPLQELYYRLCQVLARMKDRIFFTYIDKIKDKGSKDFLYGFYYRYKEDYSKAEEYLLKALDFNSNMQIARRELVNVYLNQEKYTKALPLAKENYNRKSTNSYHIEAYFRCLLNHYPWNTETEDTLNRLLKEMEENFSKRKDELLASMQLEYFIKSRNHTKEEIKEKIQETLIVYPNSPQVYRIKEEFERDKSRFCKSCNC | not soluble
2 | MGHHHHHHSHFRNCILGLAVGDALGMPVEGLSIENIRQLYGEVRDFLPSPYGDLNAGEWTDDTEQMVVLAESILETVYFDPENFAERLKRWFLETNSRRIGPSSTKAISNLMRGVHWTRAGVFSDTCGAAMRVAPIGLVYHFSLNLVERYAEISARVTHTGTAAIGGAVAVAVAIACNVLDFSDEEMLEEVLRRVEAYDNLLAEKIRYANEISDRDVEYAVEKLGNSISSLDVVPMAFYSYFAGKDFEESLIKAVNAGGDADSIAAICGAIKGAKGFAIPERWLEGLKDREFLEELATK | not soluble
3 | MSSKYNSLKLVKVKNVGDFVYKVSLNRPSKFNALNMVIWKEIGDCFQLIDEDPECRVVILQGEGKHFCSGLDLSEVTFLNGEEADDSARRGRSILRTIKFMQKQFTYIDECSKPVILAMHGYCLGAALDIATACDVRVATKDAVLSVKEVDIGMAADVGTLNRLPKIVGNHSWIKDISLSARHFSAGEALQFGLLSRVYDTREEMINEVLKMAKLIALKSPVGVQGTKNALNYARDHTVENSLNYVATWNMSQLFTDDIMKASMASLSKQPTPPFSKL | not soluble
4 | MAHHHHHHMDGAYGMRTVLNSSRLEEEPKYTLNPADLPHSSMNANNMMNGAVLTNGYHTSDYVINRESYPPDMMPQFKIDQGGSAYNNTMPMNSIIHTDPNESINMQGMKTCLETTTGFDSYRNLMNYNNTQNTIQASQVPFHLDDYNSGADLMYMSHPHTGDNFSPDYLNNLRSTETDPMTYGNNFNIPNGQFNSMLGENNNYNSLPYSMPIFENMNNPQMYMQQMNSKQALSGPTQKMDHTCSIRKMPAVSKRKIKPKKFFPCC | soluble
5 | STDIQMTQSPSSLSASVGDRVTITCQASQDINNYLIWYQQKPGQAPKLLIYDASTLETGVPSRFSGSGSGTEFTFTISSLQPEDLATYYCQQYDNLPYTFGQGTKLEIKR | soluble
6 | SLDTEKDCIKAVAAKDGITVIKVKSSNKLLSWHFMRKLFEIFEFYQEPVDMVATSEVGVSLTIDNDKNLPDIVRALSDIGDVTVDKDMVIICIVGDMEWDNVGFEARIINALKGVPVRMISYGGSNYNVSVLVKAEDKKKALIALSNKLFNSRATKA | soluble
7 | MGHHHHHHSHMANCEGTDGDGTGCNGWFFVQAIVDKQTGDTVSEDEDENATDTGSDMVDFIDDATDICIQAERETAQVLLNMQQAQRDAQTVRALKRKYTDSIESSPLAKSPLQELSIWKWKLTRR | not soluble
8 | MGLERFNGVRVDDAERALLTCCRSLRWARRVADHRPYPDLDALLAAADEAAYDLAPADLAEALAGESLTLLPDDAYSVAHTALSAAHAAYESRFGHVFVICLDNAPPGEALDQVLAGIRSRLTNDREEERVLAAEELRRLARGRLARLVRDFSPRPALQRTPLEHHHHHH | not soluble
9 | MSRTVIRAQPFFLQAAPGSREQLANPRGFTTFVLEASWSTGLRLDTYVTRGLGDPEQIMREEFQGQYVFWDTDEYLDLIRWMRHYNVSHPGRPTLRFVGNDLGYPGPEAFDQVTSYVTAHRPGVAERIATLYAGLRPARSASAGAWMGQQLTKDLASRRAEAARAERALTLLCASGRPRGSAGRAYNWAVQNATAVAQSFTGYAFPDEEFPERMRYRDQAMADNTAWWLAHTNGRILLASNNGHVAYTSDNPQEFPEPVGAFLRKKLGRKYVSVGLTFSEGSLNALPDFTAGQPQKYAVDPAPAGHNEHTLDQVRHRDFALDLRTAPPAARAWLDTARPTRSYGLYWSDQDPETALGRSYDIVIHLHRVEAARLWAFTSVKDGQSYRLEHHHHHH | not soluble
10 | MGSDKIHHHHHHMGNATRIYEKHVDIKKDTVQDFWNKRAKKHIPENPYISVKCNDQNPDYAKNLDKYEKEIIIPKLNITRNSNILDIGCGVGRLADDIVPICNYYLGTDFAEDLISIAKKRFSDNDCDFQVCDFINTLYDTKVKSKMPFDTILLAGVTMYINDDELKIALKNLLGILDKKATIYISIPIGINKRLTLKEFYSKELNSEYNVIYRTIEEYEEILKPLLDEGFEIVESKSFLTDINQYSDTERHYFILKR | not soluble
11 | MLVRKVCQNFFQNALAPFHKYRQSALMDATVALINGASLTLTSIGRFLPGQAQVKNKIKRVDRLLGNESLHRDIPLIFNNIIAMLTRKLSLCVVAVDWSGYHSHEYHILRASLICDGRSIPLLSQIVPSAEQQSEQIHKTFLNALARAVNPDARVILEHHHHHH | not soluble
12 | MSLQRKRIVRERVVYVLDYMREGNPLDKHKFHRDKPLIQAVGEDYFLLLELTPLSYNLDFLPEDKIELDSNSSVKVDAHISYEDLTSVSRDNLPKILYKIVFEKEKVFVEIFNKAEPLTLRLHALELLPNIGKKTLRIILEERKKKPFESFKDIESRIGVKDVASILVERIIKEMQGGEKYYLFVYPLIPDENKRLEQQFIYVGYIEKLKEGHHHHHH | soluble
13 | MGSDKIHHHHHHMSILTVSNLSHGFGDRAIFEDVSFRLLKGEHIGLVGANGEGKSTFMNIITSQLEPDEGKVEWAKHVRVGYLDQHAVLSKGLTIRDALKGAFQYLFDIEQEINDLYTKMGEVEPDELEKMLEEVGVLQDILTNNDFYTIDAKVEEIARGLGLDEIGLDRDVQELSGGQRTKILLAKLLLEKPDILLLDEPTNYLDVQHIEWLKRYLNDYENAFILISHDIPFLNSVINLIYHMENQGLNRYVGDYDNFLTVHEAKKKQHESAFKRQQQEISELKDFVARNKARVSTRNMAMSRQKKLDKMDVIELAQERPKPEFHFQTARTPSKLMFEAKGLVIGYDEPLSRPLDLMIERGQKIALHGANGIGKSTLLKSLLGEIPSVSGTVERGENLHIGYFEQEIKEKNSNTCIEEIWGTFPSLTQQQVRAMLAKCGLMTKHIESKIEVLSGGEKAKVRLCKLMNTESNILVLDEPTNHLDVEAKEELKRALQEYKGTVLLISHEPEFYEAVATDLWNCESWTTKVF | not soluble
14 | MNPERSERIEIPVLPLRDVVVYPHMVIPLFVGREKSIRCLEAAMDHDKKIMLVAQKEASTDEPGVNDLFTVGTVASILQMLKLPDGTVKVLVEGLQRARISALSDNGEHFSAKAEYLESPTIDEREQEVLVRTAISQFEGYIKLNKKIPPEVLTSLNSIDDPARLADTIAAHMPLKLADKQSVLEMSDVNERLEYLMAMMESEIDLLQVEKRIRNRVKKQMEKSQREYYLNEQMKAIQKELGEMDDAPDENEALKRKIDAAKMPKEAKEKAEAELQKLKMMSPMSAEATVVRGYIDWMVQVPWNARSKVKKDLRQAQEILDTDHYGLERVKDRILEYLAVQSRVNKIKGPILCLVGPPGVGKTSLGQSIAKATGRKYVRMALGGVRDEAEIRGHRRTYIGSMPGKLIQKMAKVGVKNPLFLLDEIDKMSSDMRGDPASALLEVLDPEQNVAFSDHYLEVDYDLSDVMFVATSNSMNIPAPLLDRMEVIRLSGYTEDEKLNIAKRHLLPKQIERNALKKGELTVDDSAIIGIIRYYTREAGVRGLEREISKLCRKAVKQLLLDKSLKHIEINGDNLHDYLGVQRFDYGRADNENRVGQVTGLAWTEVGGDLLTIETACVPGKGKLTYTGSLGEVMQESIQAALTVVRARAEKLGINPDFYEKRDIHVHVPEGATPKDGPSAGIAMCTALVSCLTGNPVRADVAMTGEITLRGQVLPIGGLKEKLLAAHRGGIKTVLIPFENKRDLEEIPDNVIADLDIHPVKRIEEVLTLALQNEPSGMQVVTAK | not soluble
15 | DGTCVNTNSQITANSQCVKSTATNCYIDNSQLVDTSICTRSQYSDANVKKSVTTDCNIDKSQVYLTTCTGSQYNGIYIRSSTTTGTSISGPGCSISTCTITRGVATPAAACKISGCSLSAM | soluble
16 | MSAYSMLSDRIVMAKELIKRAESLSRSRKGGIEGGAKLCSKLKAELKFLQKIEAGKVAIKESHLQSTNLTHLKAIVESAENLEEVVSVLRVFGYTDTLGEKQTLVVDVVANGGHTWVKAIGRKAEALHNIWLGRGQYGDKSIIEQAEDFLQASRQQPVQYSNPHIVFAFYNSVSSPMADKLKDMGISVRGDIVAVNSLLNHPEEFQLSESESDDEGQELLQVTRVDRDNVLARVAFPTEIKVDVCKKVNLDITTLITYVSAMSYGGCHFVFKEKVLTEQAEQERKERVLPQLEAFMKDKELFACESAVKDFQSILDTLGGPGERERADVLIKRISVVPDQPSERALRLVASSKINSRSLTIFGTGDTLKAITMTANSGFVRAANNQGVKFSVFIHQPRALTESKEAFAVPLPKDLTDDSAH | not soluble
17 | MGSDKIHHHHHHMLMGSKDKVISILKEKGPISQTELSKLSGLSKSRLSEVLSELEKQGIVKRRKVLGKNLEVSLSQDRFLRLGIIRAAEYPFIIPFIKNLENRGYSVTVKIYENGIDLTRDLVEAKLDLGLSPIITQIIFSTIYRNIRIIGGGAKGGGGIIGKTCNRIASTVMSSMEIWAFSEFKNIEIIPSYSSYEMLDFLEKGIVDGIAIWEPFLSILERKGHKVHRFTPLHCCTLAVRETMDWERIKNIYEESFSWFKSSIDRWVSSYSNLLNIDYNILKEASKNYEFDYYLDLKEFKNSLKNTGIFIPI | not soluble
18 | MGSDKIHHHHHHMTLELIPVGISACLLGNPVRFDGGHKRLTFAVEELAPYFRFESVCPEMAIGLPVPRPALRLVREGESHVTMRASNGSSLDVTQQITVFSADKVSQLQHLCGYIVCAKSPSCGMERVKVYDEAQKNARKSGVGLFTQELMRQMPWLPVEEDGRLHDSGLRENFIERVYALHELNQLWKNGLSRGALIAFHSRYKLLLLAHSQPEYRELGPFVAGIDKWESLEEYVVEYRTRLMKLLSTPATRRNHTNVLMHVQGYFRRQLSSQQRQELAQLIDRYRQGLQPLLAPITLLKHYMAEYPDAYLAQQRYFEPYPEALRLRYGH | not soluble
19 | NSVLFPCKYASSGCEITLPHTEKAEHEELCEFRPYSCPCPGASCKWQGSLDAVMPHLMHQHKSITTLQGEDIVFLATDINLPGAVDWVMMQSCFGFHFMLVLEKQEKYDGHQQFFAIVQLIGTRKQAENFAYRLELNGHRRRLTWEATPRSIHEGIATAIMNSDCLVFDTSIAQLFAENGNLGINVTISMC | soluble
20 | MGGGEVKMMSLLEEMKGIYSKKGGKVKPFEKFEGELKEGYRFEYEKKLCEIDVAMFGLISGDLNPVHFDEDFASKTRFGGRVVHGMLTTSLVSAAVARLPGTVVLLEQSFRYTSPVRIGDVVRVEGVVSGVEKNRYTIDVKCYTGDKVVAEGVVKVLIW | soluble
